B1: Cyclin-dependent kinase inhibitor 2A, P42771 (parent)
chain: MEPAAGSSMEPSADWLATAAARGRVEEVRALLEAGALPNAPNSYGRRPIQVMMMGSARVAELLLLHGAEPNCADPATLTRPVHDAAREGFLDTLVVLHRAGARLDVRDAWGRLPVDLAEELGHRDVARYLRAAAGGTRGSNHARIDAAEGPSDIPD

The variants in the series derive from B1. Conditions: Homo sapiens, pH 8.5, CD, Tris 10 mM, reversible: yes, structure 1A5E, whole UniProt chain shown; for Tm / change of melting temperature, mutant - wild type (higher = more stable): Thermal; for ddG of mutation (higher = less stable) / denaturant m value / denaturant midpoint (higher = more stable) / unfolding free energy: 20 °C, Urea.

As to T18R, the Tm (as a rule, the temperature at the midpoint of the melting transition) is 45 °C and the “change of melting temperature, mutant - wild type (higher = more stable)” value (“change of melting temperature, mutant” below) is -1 °C.

With W15D L37S L121R, the “ddG of mutation (higher = less stable)” value is -1.42 kcal/mol, the denaturant m value was determined as 1.56 kcal/mol/M, the “denaturant midpoint (higher = more stable)” value (shortened to “denaturant midpoint”) was found to be 2.8 M and the unfolding free energy stood at 4.77 kcal/mol.

Consider R124D, for which the Tm came to 45.6 °C and the “change of melting temperature, mutant” value was -0.4 °C.

As to W15D, the “ddG of mutation (higher = less stable)” value is -0.17 kcal/mol, the denaturant m value was found to be 1.74 kcal/mol/M, the “denaturant midpoint” value came to 2.1 M and the unfolding free energy is 3.52 kcal/mol.

For the variant L121R, the “ddG of mutation (higher = less stable)” value is -0.66 kcal/mol, the denaturant m value is 1.61 kcal/mol/M, the “denaturant midpoint” value worked out at 2.4 M and the unfolding free energy was 4 kcal/mol. Moreover, the Tm is 50.4 °C and the “change of melting temperature, mutant” value is 4.4 °C.

Turning to A73E, the midpoint of thermal melting (Tm) was found to be 46.2 °C and the “change of melting temperature, mutant” value was 0.2 °C.

Consider L37S, for which the “ddG of mutation (higher = less stable)” value is -0.71 kcal/mol, the denaturant m value turned out to be 1.82 kcal/mol/M, the “denaturant midpoint” value amounted to 2.4 M and the unfolding free energy worked out at 4.05 kcal/mol. Moreover, the melting temperature (Tm) amounted to 50.3 °C and the “change of melting temperature, mutant” value came out at 4.3 °C.

Turning to R128E, the Tm was 47.6 °C and the “change of melting temperature, mutant” value was determined as 1.6 °C.

On to L65K, for which the midpoint of thermal melting (Tm) came to 47.2 °C and the “change of melting temperature, mutant” value turned out to be 1.2 °C.

Regarding V95K, the Tm came to 47 °C and the “change of melting temperature, mutant” value is 1 °C.

These data come from FireProtDB (doi:10.1016/s0022-2836(03)00043-3).
